Measurements from US20190177431A1 (FUDAN UNIVERSITY, published 2019).
Read-outs that look alike come from different tables or passages of the source.

T1: murine TF (B16-F10 cells) (murine, UniProt P20352 29-294)
T1 construct: whole, on cells
T1 sequence (looked up): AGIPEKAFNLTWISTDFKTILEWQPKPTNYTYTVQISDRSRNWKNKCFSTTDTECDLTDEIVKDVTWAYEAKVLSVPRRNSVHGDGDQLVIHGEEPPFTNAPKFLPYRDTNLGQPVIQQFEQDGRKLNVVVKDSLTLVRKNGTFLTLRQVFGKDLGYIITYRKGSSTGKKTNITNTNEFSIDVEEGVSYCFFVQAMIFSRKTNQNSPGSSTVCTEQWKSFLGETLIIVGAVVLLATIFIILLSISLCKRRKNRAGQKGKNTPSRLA


Tests used:
[1] = biological target: T1, murine TF (B16-F10 cells); test: flow cytometry on B16-F10 cells
Source text: After preliminary screening, about 30 hybridoma cells were selected for secondary limiting dilution cloning, and then 6 antibodies were selected for large-scale expression and purification.

[2] = biological target: T2, human TF on the cell surface of tumor cells (human, UniProt P13726 33-295); test: flow cytometry on MDA-MB-231 cells
T2 construct: whole, on cells; Endogenous TF on TF-positive human tumor cell lines; also called cell surface TF

[3] = biological target: T2, human TF on the cell surface of tumor …; test: flow cytometry on BxPC-3 cells
Procedure: (§1) The cells were washed with PBS twice to remove the unbound primary antibody, and the target cells were incubated with 200 μL PE-labeled secondary antibody (2 μg/mL) at 4° C. for 30 min. The cells were washed with PBS twice to remove the unbound secondary antibody, and finally the cells were re-suspended in 400 μL PBS.

[4] = biological target: T3, extracellular domain of human TF protein (human, UniProt P13726 34-251); test: ELISA, coated TF extracellular domain
T3 construct: range 34-251; Limits 34-251 are stated for the immunogen; also called the extracellular domain protein of TF; TF antigen
Procedure: (§2) The antigen (the extracellular domain protein of TF) was diluted to 0.5 μg/mL with a coating solution, and was used to coat an ELISA plate overnight, at 100 μL/well and 4° C. The excessive antigen was removed by washing. The plate was blocked with 2% BSA at room temperature for 2 h, and then each of the 3-fold serial diluted monoclonal antibodies was added at 100 μL/well, and was incubated for 2 h at room temperature. The unbound antibodies were removed by washing, and an appropriate concentration of horseradish peroxidase-labeled anti-mouse secondary antibody was added at 100 μL/well, and incubated for 1 h at room temperature. The unbound secondary antibody was removed by washing, TMB chromogenic solution was added, and the color was developed to an appropriate color depth. 2M H₂SO₄ was added at 50 μL/well, to stop the chromogenic reaction, the absorbance at 450 nm was then determined, and the data was analyzed.

[5] = biological target: T2, human TF on the cell surface of tumor …; test: cell-based or functional assay
[6] = biological target: T2, human TF on the cell surface of tumor …; test: flow cytometry on U87MG cells
Procedure: as §1

[7] = biological target: T2, human TF on the cell surface of tumor …; test: flow cytometry on MDA-MB-231 cells, antibody at 1 µg/mL
Procedure: as §1

[8] = biological target: T2, human TF on the cell surface of tumor …; test: flow cytometry on MDA-MB-231 cells, antibody at 10 µg/mL; parameters: reference not given here
Procedure: as §1

[9] = biological target: T2, human TF on the cell surface of tumor …; test: flow cytometry on HCC1806 cells
[10] = biological target: T3, extracellular domain of human TF protein; test: ELISA, coated TF extracellular domain; remark: listed apart in the source
Procedure: as §2
Firstly, the 20 humanized antibodies were determined for their affinity for the extracellular domain protein of TF by ELISA binding assay (The experimental method refers to Step \textcircled{4} of Example 1).

binding result [1]	EC50 [2] [nM]	EC50 [3] [nM]	EC50 [4] [nM]	IC50 of inhibiting FXa production (BxPC-3 cells) [5] [nM]	IC50 of inhibiting FXa production (MDA-MB-231 cells) [5] [nM]	EC50 [6] [nM]	MFI [7]	MFI [8]	EC50 [9] [nM]	EC50 [10] [nM]	Binder
no binding (tested: 10 µg/mL)	2.5	2.6	~0.019	9	6.4	1.6	–	–	–	–	TF-mAb-SC1 (antibody, V domains shown) VH: QVQLQQPGAELVRPGASVKLSCKASGYSFISYWMNWVKQRPGQGLEWIGMIYPADSETRLNQKFKDKATLTVDKSSSTAYMQLSSPTSEDSAVYYCAREDYGSSDYWGQGTTLTVSS VL: EILLTQSPAIIAASPGEKVTITCSASSSVSYMNWYLQKPGSSPKIWIYGISNLASGVPARFSGSGSGTSFSFTINSMETEDVATYYCQQKSSFPWTFGGGTKLEIK
–	2.3	–	~0.011	–	–	–	3370	3540	2.1	0.01	TF-mAb-Ch (antibody, V domains shown, Variable regions of TF-mAb-SC1 cloned into vectors with human IgG1 heavy chain constant region and human kappa constant region; also called human-mouse chimeric antibody; chimeric antibody TF-mAb-Ch) VH: QVQLQQPGAELVRPGASVKLSCKASGYSFISYWMNWVKQRPGQGLEWIGMIYPADSETRLNQKFKDKATLTVDKSSSTAYMQLSSPTSEDSAVYYCAREDYGSSDYWGQGTTLTVSS VL: EILLTQSPAIIAASPGEKVTITCSASSSVSYMNWYLQKPGSSPKIWIYGISNLASGVPARFSGSGSGTSFSFTINSMETEDVATYYCQQKSSFPWTFGGGTKLEIK
